Assay results as given in paper PMC11615386, “Phosphorylation-mediated conformational change regulates human SLFN11” (Nature Communications, 2024).

T1: SLFN11 (Homo sapiens, UniProt Q7Z7L1, S753D)
T1 construct: S753D monomer, 104 kDa, model residues 7-897
T1 sequence (Q7Z7L1 1-901 S753D): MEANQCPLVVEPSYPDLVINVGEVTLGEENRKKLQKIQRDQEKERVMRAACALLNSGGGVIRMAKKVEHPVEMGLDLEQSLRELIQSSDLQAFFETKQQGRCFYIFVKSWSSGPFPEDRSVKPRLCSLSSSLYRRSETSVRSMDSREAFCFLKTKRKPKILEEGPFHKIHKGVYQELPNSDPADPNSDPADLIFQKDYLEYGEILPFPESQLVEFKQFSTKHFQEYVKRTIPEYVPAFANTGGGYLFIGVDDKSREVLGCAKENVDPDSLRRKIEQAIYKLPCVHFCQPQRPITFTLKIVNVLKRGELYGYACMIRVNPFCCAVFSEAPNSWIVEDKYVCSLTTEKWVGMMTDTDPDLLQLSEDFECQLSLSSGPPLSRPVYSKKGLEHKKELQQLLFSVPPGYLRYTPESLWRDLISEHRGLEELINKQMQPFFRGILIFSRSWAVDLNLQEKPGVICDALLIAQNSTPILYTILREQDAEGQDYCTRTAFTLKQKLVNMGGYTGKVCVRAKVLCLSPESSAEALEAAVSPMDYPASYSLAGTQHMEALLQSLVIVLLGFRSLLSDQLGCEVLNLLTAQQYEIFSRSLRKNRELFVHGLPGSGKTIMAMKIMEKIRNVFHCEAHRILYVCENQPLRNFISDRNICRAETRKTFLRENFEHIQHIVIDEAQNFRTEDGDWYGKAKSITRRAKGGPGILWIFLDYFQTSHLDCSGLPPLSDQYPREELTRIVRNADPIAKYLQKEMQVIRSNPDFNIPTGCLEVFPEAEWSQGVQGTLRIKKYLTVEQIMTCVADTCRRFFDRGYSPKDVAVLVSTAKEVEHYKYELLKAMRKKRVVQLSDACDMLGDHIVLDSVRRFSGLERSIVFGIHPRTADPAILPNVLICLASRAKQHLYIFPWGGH


What was measured:
SLFN11 = target: T1, SLFN11; assay: nanoDSF thermal shift (Tycho NT.[…]); type: binding; details: 1 mM nucleotide, 300 nM protein, 25 mM Tris pH 7.5, 60 mM NaCl, 2 mM MgCl2
[1] = target: the molecule itself; assay: mass photometry; 50 nM SLFN11 in 25 mM Tris pH 7.5, 2 mM MgCl2, 1 mM DTT with variable concentrations of NaCl (80 mM NaCl in Fig. 4d, e); dimer to monomers

| Molecule | inflection temperature shift (SLFN11) | stoichiometry N [1] |
| --- | --- | --- |
| Nc1ncnc2c1ncn2[C@@H]1O[C@H](COP(=O)(O)OP(=O)(O)OP(=O)(O)O)[C@@H](O)[C@H]1O [ATP] | ATP and ATPγS caused a large increase in the inflection temperatures of SLFN11^S753D |  |
| Human Schlafen 11 (SLFN11), wild type (enzyme, Schlafen 11 (SLFN11), human; N-terminal nuclease domain, linker domain and C-terminal helicase domain; also called SLFN11^wt) MEANQCPLVVEPSYPDLVINVGEVTLGEENRKKLQKIQRDQEKERVMRAACALLNSGGGVIRMAKKVEHPVEMGLDLEQSLRELIQSSDLQAFFETKQQGRCFYIFVKSWSSGPFPEDRSVKPRLCSLSSSLYRRSETSVRSMDSREAFCFLKTKRKPKILEEGPFHKIHKGVYQELPNSDPADPNSDPADLIFQKDYLEYGEILPFPESQLVEFKQFSTKHFQEYVKRTIPEYVPAFANTGGGYLFIGVDDKSREVLGCAKENVDPDSLRRKIEQAIYKLPCVHFCQPQRPITFTLKIVNVLKRGELYGYACMIRVNPFCCAVFSEAPNSWIVEDKYVCSLTTEKWVGMMTDTDPDLLQLSEDFECQLSLSSGPPLSRPVYSKKGLEHKKELQQLLFSVPPGYLRYTPESLWRDLISEHRGLEELINKQMQPFFRGILIFSRSWAVDLNLQEKPGVICDALLIAQNSTPILYTILREQDAEGQDYCTRTAFTLKQKLVNMGGYTGKVCVRAKVLCLSPESSAEALEAAVSPMDYPASYSLAGTQHMEALLQSLVIVLLGFRSLLSDQLGCEVLNLLTAQQYEIFSRSLRKNRELFVHGLPGSGKTIMAMKIMEKIRNVFHCEAHRILYVCENQPLRNFISDRNICRAETRKTFLRENFEHIQHIVIDEAQNFRTEDGDWYGKAKSITRRAKGGPGILWIFLDYFQTSHLDCSGLPPLSDQYPREELTRIVRNADPIAKYLQKEMQVIRSNPSFNIPTGCLEVFPEAEWSQGVQGTLRIKKYLTVEQIMTCVADTCRRFFDRGYSPKDVAVLVSTAKEVEHYKYELLKAMRKKRVVQLSDACDMLGDHIVLDSVRRFSGLERSIVFGIHPRTADPAILPNVLICLASRAKQHLYIFPWGGH |  | 2 |
| SLFN11 phosphomimetic mutant S219D (enzyme, human, Schlafen 11 (SLFN11), human, with the phosphomimetic mutation S219D in the nuclease domain; Made by quick change PCR from the wild-type construct; also called SLFN11^S219D) MEANQCPLVVEPSYPDLVINVGEVTLGEENRKKLQKIQRDQEKERVMRAACALLNSGGGVIRMAKKVEHPVEMGLDLEQSLRELIQSSDLQAFFETKQQGRCFYIFVKSWSSGPFPEDRSVKPRLCSLSSSLYRRSETSVRSMDSREAFCFLKTKRKPKILEEGPFHKIHKGVYQELPNSDPADPNSDPADLIFQKDYLEYGEILPFPESQLVEFKQFDTKHFQEYVKRTIPEYVPAFANTGGGYLFIGVDDKSREVLGCAKENVDPDSLRRKIEQAIYKLPCVHFCQPQRPITFTLKIVNVLKRGELYGYACMIRVNPFCCAVFSEAPNSWIVEDKYVCSLTTEKWVGMMTDTDPDLLQLSEDFECQLSLSSGPPLSRPVYSKKGLEHKKELQQLLFSVPPGYLRYTPESLWRDLISEHRGLEELINKQMQPFFRGILIFSRSWAVDLNLQEKPGVICDALLIAQNSTPILYTILREQDAEGQDYCTRTAFTLKQKLVNMGGYTGKVCVRAKVLCLSPESSAEALEAAVSPMDYPASYSLAGTQHMEALLQSLVIVLLGFRSLLSDQLGCEVLNLLTAQQYEIFSRSLRKNRELFVHGLPGSGKTIMAMKIMEKIRNVFHCEAHRILYVCENQPLRNFISDRNICRAETRKTFLRENFEHIQHIVIDEAQNFRTEDGDWYGKAKSITRRAKGGPGILWIFLDYFQTSHLDCSGLPPLSDQYPREELTRIVRNADPIAKYLQKEMQVIRSNPSFNIPTGCLEVFPEAEWSQGVQGTLRIKKYLTVEQIMTCVADTCRRFFDRGYSPKDVAVLVSTAKEVEHYKYELLKAMRKKRVVQLSDACDMLGDHIVLDSVRRFSGLERSIVFGIHPRTADPAILPNVLICLASRAKQHLYIFPWGGH |  | 2 |
| SLFN11 phosphomimetic mutant T230D (enzyme, human, Schlafen 11 (SLFN11), human, with the phosphomimetic mutation T230D in the nuclease domain; Made by quick change PCR from the wild-type construct; also called SLFN11^T230D) MEANQCPLVVEPSYPDLVINVGEVTLGEENRKKLQKIQRDQEKERVMRAACALLNSGGGVIRMAKKVEHPVEMGLDLEQSLRELIQSSDLQAFFETKQQGRCFYIFVKSWSSGPFPEDRSVKPRLCSLSSSLYRRSETSVRSMDSREAFCFLKTKRKPKILEEGPFHKIHKGVYQELPNSDPADPNSDPADLIFQKDYLEYGEILPFPESQLVEFKQFSTKHFQEYVKRDIPEYVPAFANTGGGYLFIGVDDKSREVLGCAKENVDPDSLRRKIEQAIYKLPCVHFCQPQRPITFTLKIVNVLKRGELYGYACMIRVNPFCCAVFSEAPNSWIVEDKYVCSLTTEKWVGMMTDTDPDLLQLSEDFECQLSLSSGPPLSRPVYSKKGLEHKKELQQLLFSVPPGYLRYTPESLWRDLISEHRGLEELINKQMQPFFRGILIFSRSWAVDLNLQEKPGVICDALLIAQNSTPILYTILREQDAEGQDYCTRTAFTLKQKLVNMGGYTGKVCVRAKVLCLSPESSAEALEAAVSPMDYPASYSLAGTQHMEALLQSLVIVLLGFRSLLSDQLGCEVLNLLTAQQYEIFSRSLRKNRELFVHGLPGSGKTIMAMKIMEKIRNVFHCEAHRILYVCENQPLRNFISDRNICRAETRKTFLRENFEHIQHIVIDEAQNFRTEDGDWYGKAKSITRRAKGGPGILWIFLDYFQTSHLDCSGLPPLSDQYPREELTRIVRNADPIAKYLQKEMQVIRSNPSFNIPTGCLEVFPEAEWSQGVQGTLRIKKYLTVEQIMTCVADTCRRFFDRGYSPKDVAVLVSTAKEVEHYKYELLKAMRKKRVVQLSDACDMLGDHIVLDSVRRFSGLERSIVFGIHPRTADPAILPNVLICLASRAKQHLYIFPWGGH |  | 2 |
